Measurements published in publication PMC3601584 (Nature communications, 2013).

T1: TPST2ΔC18 (38 kDa core domain of human tyrosylprotein sulfotransferase-2, Gly43–Leu359) (human, UniProt O60704 43-359)
T1 sequence (looked up): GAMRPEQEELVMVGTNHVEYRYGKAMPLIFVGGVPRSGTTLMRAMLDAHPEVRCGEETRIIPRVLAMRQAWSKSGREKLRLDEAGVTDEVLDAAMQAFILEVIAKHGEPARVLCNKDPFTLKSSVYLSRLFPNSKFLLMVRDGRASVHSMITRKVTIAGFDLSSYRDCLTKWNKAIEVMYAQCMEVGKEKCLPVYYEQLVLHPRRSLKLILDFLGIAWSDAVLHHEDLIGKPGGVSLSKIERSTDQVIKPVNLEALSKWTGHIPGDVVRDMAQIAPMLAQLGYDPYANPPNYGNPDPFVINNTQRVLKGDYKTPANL


Key:
[1] = target: T1, TPST2ΔC18 (38 kDa core domain of human …); test: crystal structure
[2] = target: the molecule itself; test: crystal structure

Row | Binder | binding result [1] | binding result [2]
1 | EDFEDYEFD [C4P5Y3 peptide (substrate peptide derived from human complement C4)] | binds | 
2 | TPST2 (proposed catalytic domain of human tyrosylprotein sulfotransferase-2, Gly43-Ser377) (domain or fragment, UniProt O60704 43-377, looked up) GAMRPEQEELVMVGTNHVEYRYGKAMPLIFVGGVPRSGTTLMRAMLDAHPEVRCGEETRIIPRVLAMRQAWSKSGREKLRLDEAGVTDEVLDAAMQAFILEVIAKHGEPARVLCNKDPFTLKSSVYLSRLFPNSKFLLMVRDGRASVHSMITRKVTIAGFDLSSYRDCLTKWNKAIEVMYAQCMEVGKEKCLPVYYEQLVLHPRRSLKLILDFLGIAWSDAVLHHEDLIGKPGGVSLSKIERSTDQVIKPVNLEALSKWTGHIPGDVVRDMAQIAPMLAQLGYDPYANPPNYGNPDPFVINNTQRVLKGDYKTPANLKGYFQVNQNSTSSHLGSS |  | binds
